Source: patent publication US20210145976A1 (ARO BIOTHERAPEUTICS, published 2021)

Assays:
[1] = molecular target: T1, recombinant biotinylated CD71 extracellular domain (Sino Biologics) with an N-terminal 6His tag (human, UniProt P02786 89-760, biotinylated (sites not given)); assay: screening ELISA
T1 construct: extracellular domain; also called hCD71; huCD71

[2] = molecular target: T1, recombinant biotinylated CD71 …; assay: screening ELISA, ratio

T1 sequence (P02786 other isoform, or with tags, fused parts or gaps): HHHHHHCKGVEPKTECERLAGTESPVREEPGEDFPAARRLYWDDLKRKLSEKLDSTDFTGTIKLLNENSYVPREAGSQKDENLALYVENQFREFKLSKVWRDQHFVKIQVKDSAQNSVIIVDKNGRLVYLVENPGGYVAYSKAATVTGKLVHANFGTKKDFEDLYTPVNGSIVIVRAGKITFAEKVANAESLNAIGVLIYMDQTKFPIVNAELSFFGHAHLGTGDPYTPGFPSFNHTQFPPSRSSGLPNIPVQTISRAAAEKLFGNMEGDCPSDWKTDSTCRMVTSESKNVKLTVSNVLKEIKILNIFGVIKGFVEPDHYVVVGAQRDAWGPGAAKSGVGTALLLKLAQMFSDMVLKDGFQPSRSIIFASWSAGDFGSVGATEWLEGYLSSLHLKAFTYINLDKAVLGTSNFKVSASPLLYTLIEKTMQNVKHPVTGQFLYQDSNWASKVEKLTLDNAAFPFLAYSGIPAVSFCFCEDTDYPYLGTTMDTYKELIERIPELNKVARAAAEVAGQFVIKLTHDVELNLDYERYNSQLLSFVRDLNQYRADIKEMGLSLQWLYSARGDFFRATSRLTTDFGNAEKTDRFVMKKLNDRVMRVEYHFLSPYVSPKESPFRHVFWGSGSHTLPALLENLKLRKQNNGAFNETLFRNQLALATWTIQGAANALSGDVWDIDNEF

Binder	hCD71 [1]	hCD71:HSA [2]
SEQ ID NO 183 (designed binder, FN3 domain) MLPAPKNLVVSRVTEDSARLSWTAPDAAFDSFLIPYAETSPSGEAIVLTVPGSERSYDLTGLKPGTEYSVLIHGVKGGRPSNPLVAAFTT	1.72e+06	161
SEQ ID NO 178 (designed binder, FN3 domain) MLPAPKNLVVSRVTEDSARLSWTAPDAAFDSFDIAYAEPIPRGEAIVLTVPGSERSYDLTGLKPGTEYSVLIHGVKGGRRSVPLSAIFTT	1.45e+06	644
SEQ ID NO 219 (designed binder, FN3 domain) MLPAPKNLVVSRVTEDSARLSWTAPDAAFDSFHIDYLELTYAGEAIVLTVPGSERSYDLTGLKPGTEYYVTIYGVKGGYPSSPLSAIFTT	3.31e+06	1270
SEQ ID NO 215 (designed binder, FN3 domain) MLPAPKNLVVSRVTEDSARLSWTAPDAAFDSFLIPYAETSPTGEAIVLTVPGSERSYDLTGLKPGTEYSVLIHGVKGGYPSSPLSAIFTT	2.13e+06	1210
SEQ ID NO 176 (designed binder, FN3 domain) MLPAPKNLVVSRVTEDSARLSWTAPDAAFDSFPIAYAEPRPDGEAIVLTVPGSERSYDLTGLKPGTEYSVGIHGVKGGHDSSPLSAIFTT	1.34e+06	129
SEQ ID NO 200 (designed binder, FN3 domain) MLPAPKNLVVSRVTEDSARLSWTAPDAAFDSFYIEYYEWMHTGEAIVLTVPGSERSYDLTGLKPGTEYSVYIYGVKGGYPSSPLSAIFTT	3.63e+06	1730
SEQ ID NO 207 (designed binder, FN3 domain) MLPAPKNLVVSRVTEDSARLSWTAPDAAFDSFFIGYLEPQPPGEAIVLTVPGSERSYDLTGLKPGTEYNVTIQGVKGGTPSEPLSAISTT	1.6e+06	62
SEQ ID NO 177 (designed binder, FN3 domain) MLPAPKNLVVSRVTEDSARLSWTAPDAAFDSFFIGYLEPQPPGEAIVLTVPGSERSYDLTGLKPGTEYNVTIQGVKGGRASGPLSAIFTT	2.61e+06	1060
SEQ ID NO 188 (designed binder, FN3 domain) MLPAPKNLVVSRVTEDSARLSWTAPDAAFDSFLIPYAETSPSGEAIVLTVPGSERSYDLTGLKPGTEYSVLIHGVKGGKLSLPLSAIFTT	2.67e+06	797
SEQ ID NO 211 (designed binder, FN3 domain) MLPAPKNLVVSRVTEDSARLSWTAPDAAFDSFWINYYEAQPDGEAIVLTVPGSERSYDLTGLKPGTEYDVEIAGVKGGTASLPLSAIFTT	1e+06	334
SEQ ID NO 181 (designed binder, FN3 domain) MLPAPKNLVVSHVTEDSARLSWTAPDAAFDSFPIAYAEPRPDGEAIVLTVPGSERSYDLTGLKPGTEYSVLIHGVKGGLLSSPLSAIFTT	2.95e+06	491
SEQ ID NO 192 (designed binder, FN3 domain) MLPAPKNLVVSRVTEDSARLSWTALDAAFDSFFIGYLEPQPPGEAIVLTVPGSERSYDLTGLKPGTEYNVTIQGVKGGFPSMPLSAIFTT	2.67e+06	650
SEQ ID NO 193 (designed binder, FN3 domain) MLPAPKNLVVSRVTEDSARLSWTAPDAAFDSFTIWYAEAVGNGEAIVLTVPGSERSYDLTGLKPGTEYWVDIWGVKGGEFSSPLSAIFTT	3.87e+06	1550

The remaining lines, values ahead:

hCD71 [1]	hCD71:HSA [2]	Binder
982000	58	SEQ ID NO 170 (designed binder, FN3 domain) MLPAPKNLVVSRVTEDSARLSWTAPDAAFDSFFIGYPEYPATGEAIVLTVPGSERSYDLTGLKPGTEYFVDINGVKGGSLSYPLSAIFTT
1.16e+06	514	SEQ ID NO 210 (designed binder, FN3 domain) MLPAPKNLVVSRVTEDSARLSWTAPDAAFDSFSIVYGERFVNGEAIVLTVPGSERSYDLTGLKPGTEYHVYIDGVKGGDLSWPLSAIFTT
2.68e+06	36	SEQ ID NO 179 (designed binder, FN3 domain) MLPAPKNLVVSRVTEDSARLSWTAPDAAFDSFYIAYAEPRPDGEAIVLTVPGSERSYDLTGLKPGTEYPVPIPGVKGGPGSSPLSAIFTT
3.12e+06	1060	SEQ ID NO 182 (designed binder, FN3 domain) MLPAPKNLVVSRVTEDSARLSWTAPDAAFDSFFIGYLEPYPPGEAIVLTVPGSERSYDLTGLKPGTEYVVSIQGVKGGTPSQPLSAIFTT
4.5e+06	1610	SEQ ID NO 202 (designed binder, FN3 domain) MLPAPKNLVVSRVTEDSARLSWTAPDAAFDSFYIDYLELTYSGEAIVLTVPGSERSYDLTGLKPGTEYYVYIYGVKGGYPSSPLSAIFTT
434000	130	SEQ ID NO 205 (designed binder, FN3 domain) MLPAPKNLVVSRVTEDSARLSWTAPDAAFDSFDIDYDEPAWNGEAIVLTVPGSERSYDLTGLKPGTEYRVFIYGVKGGNTSWPLSAIFTT
3.44e+06	1130	SEQ ID NO 198 (designed binder, FN3 domain) MLPAPKNLVVSRVTEDSARLSWTAPDAAFDSFLIAYNEDRKFGEAIVLTVPGSERSYDLTGLKPGTEYDVWIEGVKGGSLSFPLSAIFTT
3.55e+06	2220	SEQ ID NO 175 (designed binder, FN3 domain) MLPAPKNLVVSRVTEDSARLSWTAPDAAFDSFFIGYLEPQPPGEAIVLTVPGSERSYDLTGLKPGTEYSVVIQGVKGGFPSDPLSAIFTT
2.19e+06	101	SEQ ID NO 216 (designed binder, FN3 domain) MLPAPKNLVVSRVTEDSARLSWTAPDAAFDSFPIAYAEPTPSGEAIVLTVPGSERSYDLTGLKPGTEYSVLIHGVKGGGLSLPLSAIFTT
3.06e+06	422	SEQ ID NO 187 (designed binder, FN3 domain) MLPAPKNLVVSRVTEDSARLSWTAPDAAFDSFVIEYFEFVGYGEAIVLTVPGSERSYDLTGLKPGTEYSVGIYGVKGGKLSPPLSAIFTT
1.81e+06	182	SEQ ID NO 185 (designed binder, FN3 domain) MLPAPKNLVVSRVTEDSARLSWTAPDAAFDSFEIDYDELAIYGEAIVLTVPGSERSYDLTGLKPGTEYGVMIIGVKGGLPSDPLSAIFTT
2.53e+06	28	SEQ ID NO 195 (designed binder, FN3 domain) MLPAPKNLVVSRVTEDSARLSWTAPDAAFDSFPIEYDEIPFWGEAIVLTVPGSERSYDLTGLKPGTEYRVWIHGVKGGNSSWPLSAIFTT
1.68e+06	50	SEQ ID NO 180 (designed binder, FN3 domain) MLPAPKNLVVSRVTEDSARLSWTAPDAAFDSFEISYYEMRGYGEAIVLTVPGSERSYDLTGLKPGTEYSVLIHGVEGGDYSSPLSAISTT
